# Measured values published in paper PMC4660213, “Identification and characterization of multiple rubisco activases in chemoautotrophic bacteria” (Nature Communications, 2015).
# B1: Acidithiobacillus ferrooxidans CbbO1 (natural protein, UniProt B7JA27 1-772, looked up)
# chain: MKHLEDYAELLQAFGEGSQAILQSKWQEATRVFSPSGLDQYLDGAMGLRSLGKGDGLVSSYLDAAPHIAREVGEDAVWELVGAVMKMASKTSGAVLEAVVSTSPTAANRLADPELFKSYLGMLDRLLAQVPRALRPMLENIDQLFGYLTLGGLRRWALWGAHAHRTDFEAQIAYFSLKSPEALAMLQQERKGTLFVDIQRRLRMYLRALWGRDFFLRPTSGDFEDREGYRPYIEGIFIHLPDAYDDWEDIDGMTRYRAVAVHAAAHVAYMRKAISAEALTPEQMAVIGLFEDARVEALAMRAFPGIRAIWLPFHTAVAGPVASMGHLFSRLARAIIDPDYVDDNAWVQEGRRVFMEAEARWDDPQLSWDLGVHLADRLRNQRVSYHARTDIPDILYRDDNRYIWEFEEIDWEHETTILPGAQVRKYVNVMEMVNEVDTELAGDDAQEVWVLQSELFPYEDMGLSYNQMEGKEPVSDPFHYPEWDYQIQASRPLWATVLERRPRLGDARVVREVLEKYKPVSSRLRYLIEALQPQGVQRLRKQEDGDEIDVEAAVRALVDIRMGLAPDTRIHMRSLRKVRDLGVLVLMDLSESTNDKVRGSEDSILQLTRDATSLLADAMNRIGDPFAIHGFHSDGRHDVAYYRFKDFDEAYSEEAMGRIAGMTGKFSTRMGAALRHAGHHLRHQRQSRKLLLVITDGEPADIDVRDPQYLRHDARRAVEDLGRDGVITYCLSLDPHADEYVSRIFGARNYQVIDHVERLPERLPILYAGLTR
# notes: VWA-domain protein CbbO1 of Acidithiobacillus ferrooxidans ATCC 23270, locus AFE_3054; insoluble unless co-expressed with CbbQ1; also called AfCbbO1; source: E. coli, co-expressed with CbbQ1, co-purified (Ni-NTA, ubiquitin cleaved, MonoQ, Superdex 200); not shown: His6, N-terminal, cleaved; ubiquitin, N-terminal, cleaved
# B2: Acidithiobacillus ferrooxidans CbbO2 (natural protein, UniProt B7J5E5 1-759, looked up)
# chain: MTDHPRDASLPSRLAAYRKQLDCRFPRVGEVFSDCIAKASARLGPAGVSAYVDAARALCKLGRGEEPVLIFLEEWPDVGAALGDGTLEMVMQMVQFMQRTPNGNAIGGFLQSLAPVSRALLSREQLGHYLNTLRDMMERTTGSIHGHHQTHPSPGLPELLRQAPTLLQSLTVDGLRNWVDYGVRNYLHHPERQKDFFSLQSADSRAVLQRERHGTLLADVERKLDLYLRGLWQDSEVLVPYSTAFATLRTPQPYYDALGMRLPDVLDDLPGIGALDHYRAILAHMVGHRRWSTPQIADNWSPFQRLAVEFFEDARIDTLLIRTYPGLRTLFLALHPKPGEDACDPETTSCLRHRLAMLSRALLDPEHGYRNPVLHDFVDRFHGELAGGNADTATMARLALDYVTTTRRQSDQFAKVHFADTEISYRDDNRGLWRFIESGDEEEAFDAEQRKAPDLETQGLPPRHYPEWDYQSQSYRPDWVSLYEGLHASAPAATIDQLLLKHAALAKHLKRLLDLLKPQDKVRIRYQEEGSELDLDVALRSWIDFKSGSTPDPRINMSHRTAGRDIAVTLLLDLSESLNESVKTGGGDGQTVLQLSQEAVSLLAWSIEQLGDPLAIAGFNSNTRHEVRYQHIKGFSEPWGDVVKGRLAALQAGYSTRMGAAMRHAGHYLATRKADKKLMLVLTDGRPSDVDVQDDRLLIEDARQAVNELDRDGIFTYCISLDPHADAYVADIFGRQYTVIDHIARLPEKLPELFIALTR
# notes: VWA-domain protein CbbO2 of Acidithiobacillus ferrooxidans ATCC 23270, locus AFE_2157; insoluble unless co-expressed with CbbQ2; also called AfCbbO2; source: E. coli, co-expressed with CbbQ2, co-purified (Ni-NTA, ubiquitin cleaved, MonoQ, Superdex 200; 5 mM MgCl2 and 5% glycerol in buffers); not shown: His6, N-terminal, cleaved; ubiquitin, N-terminal, cleaved
# B3: Rhodobacter sphaeroides form I rubisco small subunit (natural protein, UniProt P27998 1-129, looked up)
# chain: MRITQGCFSFLPDLTDEQISAQVDYCLGRGWAVSLEHTDDPHPRNTYWEMWGMPMFDLRDPKGVMIELDECRKAWPGRYIRINAFDSTRGFETVTMSFIVNRPEVEPSLRMERTEVDGRSIRYTHSIVR
# notes: form I rubisco small subunit of Rhodobacter sphaeroides; also called small subunit of RsLS
# B4: Acidithiobacillus ferrooxidans form II rubisco (enzyme, UniProt B7J5E3 1-459, looked up)
# chain: MDQSNRYADLSLKEEDLISGGKHILVAYKMKPKAGHGYLEAAAHFAAESSTGTNVEVSTTDDFTKGVDALVYHIDEATEDMRIAFPLELFDRNVTDGRMMIVSFLTLVIGNNQGMGDIEHGQMIDFFMPPRAIQLFDGPAKDISDLWRILGRPIKDGGYIAGTIIKPKLGLRPEPFAAAAYQFWLGGDFIKNDEPQGNQVFAPVKKTIPLVYDAMKRAMDETGEAKLFSMNITADDHYEMCARADFALETFGPDADKLAFLVDGFVGGPGMITTARRQYAGQYLHYHRAGHGMITSPSAKRGYTAFVLAKMSRLQGASGIHVGTMGYGKMEGGADDRNIAYMIERDSCDGPVYHQEWYGMKPTTPIISGGMNALRLPGFFENLGHGNVINTAGGGSYGHIDSPAAGAVSLRQAYECWKAGADPIEYAREHKEFARAFESFPGDADKLYPGWREKLGVHR
# notes: form II rubisco (CbbM) of Acidithiobacillus ferrooxidans ATCC 23270, locus AFE_2155; native N terminus after cleavage of His6-ubiquitin; used as ECM, ER and ECMC complexes in the enzymatic assays; also called AfM; CbbM; source: E. coli BL21 (DE3), purified (Ni-NTA, ubiquitin cleaved, Mono Q, Superdex 200); not shown: His6, N-terminal, cleaved; ubiquitin, N-terminal, cleaved
# B5: Rhodobacter sphaeroides form I rubisco large subunit (natural protein, UniProt P27997 1-486, looked up)
# chain: MDTKTTEIKGKERYKAGVLKYAQMGYWDGDYVPKDTDVLALFRITPQEGVDPVEAAAAVAGESSTATWTVVWTDRLTACDSYRAKAYRVEPVPGTPGQYFCYVAYDLILFEEGSIANLTASIIGNVFSFKPLKAARLEDMRFPVAYVKTYKGPPTGIVGERERLDKFGKPLLGATTKPKLGLSGKNYGRVVYEGLKGGLDFMKDDENINSQPFMHWRDRFLYVMEAVNLASAQTGEVKGHYLNITAGTMEEMYRRAEFAKSLGSVIVMVDLIIGYTAIQSISEWCRQNDMILHMHRAGHGTYTRQKNHGISFRVIAKWLRLAGVDHLHCGTAVGKLEGDPLTVQGYYNVCREPFNTVDLPRGIFFEQDWADLRKVMPVASGGIHAGQMHQLLSLFGDDVVLQFGGGTIGHPMGIQAGATANRVALEAMVLARNEGRNIDVEGPEILRAAAKWCKPLEAALDTWGNITFNYTSTDTSDFVPTASVAM
# notes: form I rubisco large subunit of Rhodobacter sphaeroides; also called large subunit of RsLS
# B6: Rhodopseudomonas palustris form II rubisco (enzyme, UniProt Q6N0W9 1-461, looked up)
# chain: MDQSNRYANLNLKESELIAGGRHVLCAYIMKPKAGFGNFIQTAAHFAAESSTGTNVEVSTTDDFTRGVDALVYEVDEANSLMKIAYPIELFDRNVIDGRAMIASFLTLTIGNNQGMGDVEYAKMYDFYVPPAYLKLFDGPSTTIKDLWRVLGRPVINGGFIVGTIIKPKLGLRPQPFANACYDFWLGGDFIKNDEPQGNQVFAPFKDTVRAVADAMRRAQDKTGEAKLFSFNITADDHYEMLARGEFILETFADNADHIAFLVDGYVAGPAAVTTARRAFPKQYLHYHRAGHGAVTSPQSKRGYTAFVLSKMARLQGASGIHTGTMGFGKMEGEAADRAIAYMITEDAADGPYFHQEWLGMNPTTPIISGGMNALRMPGFFDNLGHSNLIMTAGGGAFGHVDGGAAGAKSLRQAEQCWKQGADPVEFAKDHREFARAFESFPQDADKLYPNWRAKLKPQAA
# notes: form II rubisco (CbbM) of Rhodopseudomonas palustris; gene synthesized by Genscript, cloned in pHue; also called RpM; source: E. coli BL21 (DE3), purified (Ni-NTA, ubiquitin cleaved, Mono Q, Superdex 200); not shown: His6, N-terminal, cleaved; ubiquitin, N-terminal, cleaved
# B7: Acidithiobacillus ferrooxidans form I rubisco large subunit (natural protein, UniProt B7JA24 1-473, looked up)
# chain: MAVKTYNAGVKDYRNTYWEPDYSVKDTDILAVFKITPQAGVDREEAAAAVAAESSTGTWTTVWTDLLTDLDYYKGRAYRIEDVPGDDTCFYAFIAYPIDLFEEGSVVNVFTSLVGNVFGFKAVRALRLEDVRFPIAYVKTCGGPPHGIQVERDIMNKYGRPLLGCTIKPKLGLSAKNYGRACYEGLRGGLDFTKDDENVNSQPFMRWRQRFDFVMEAIQKAEAETGERKGHYLNVTAPTPEEMYKRAEYAKEIGAPIIMHDYITGGFCANTGLANWCRDNGMLLHIHRAMHAVLDRNPHHGIHFRVLTKILRLSGGDHLHSGTVVGKLEGDREATLGWIDIMRDRFIKEDRSRGIFFDQDWGSMPGVMPVASGGIHVWHMPALVTIFGDDSVLQFGGGTLGHPWGNAAGAAANRVALEACVEARNRGVAIEKEGKAVLTEAAKHSPELKIAMETWKEIKFEFDTVDKLDVAHK
# notes: form I rubisco large subunit (CbbL) of Acidithiobacillus ferrooxidans ATCC 23270, locus AFE_3051; gene amplified from genomic DNA; cbbL and cbbS were amplified together and cloned between NdeI and HindIII of pET30b; no tag is mentioned; also called AfL; CbbL; source: E. coli BL21, co-expressed with the small subunit from pET30bAfcbbLS, purified (Source30Q, Superdex 200)
# B8: Acidithiobacillus ferrooxidans CbbQ1 (natural protein, UniProt B7JA26 1-267, looked up)
# chain: MNDQLTEYRIKKAPYYRATGDETELYEAAYSVRMPMMLKGPTGCGKTRFVEYMAYKLGKPLITVACNEDMTASDLVGRFLLDPQGTRWQDGPLTLAARLGAICYLDEVVEARQDTTVVIHPLTDNRRVLPLEKKGELVQAHPDFQLVISYNPGYQSLMKDLKQSTKQRFGALDFNYPDHEIEAEIVSHETGVNKEVADKLVSIAERARNLKGHGLDEGISTRMLVYAGSLINKGVEAKAACRVTLVRPITDDPDMRDALDAAVTTYF
# notes: MoxR-type AAA+ protein CbbQ1 of Acidithiobacillus ferrooxidans ATCC 23270, locus AFE_3053; native N terminus after cleavage of His6-ubiquitin; six copies in the Q1O1 complex; alone it eluted in the void volume (likely soluble aggregates); also called AfQ1; AfCbbQ1; source: E. coli, co-expressed with CbbO1, co-purified (Ni-NTA, ubiquitin cleaved, MonoQ, Superdex 200); not shown: His6, N-terminal, …
# B9: Acidithiobacillus ferrooxidans CbbQ2 (natural protein, UniProt B7J5E4 1-272, looked up)
# chain: MTATDSSILNQYLVGKEPFYQPQHDEVALFEAAYRKRLPVMVKGPTGCGKSRFVEFMAWRLGKPLVTVACNEDMTAADLVGRWLLDKDGTRWQDGPLTVAARYGAICYLDEIVEARQDTTVVIHPLTDHRRTLPLDKKGELIRAHPDFQLVISYNPGYQSLMKDLKQSTKQRFTGFEFDYPNAELEAGILVQETGVAPSIAAQLVTVAATARRLKGHGLDEGISTRLLVYAAMLMDDGVAPRAACRMALVQPITDDADIRATLEHAIDMTFA
# notes: MoxR-type AAA+ protein CbbQ2 of Acidithiobacillus ferrooxidans ATCC 23270, locus AFE_2156; native N terminus after cleavage of His6-ubiquitin; also called AfQ2; AfCbbQ2; not shown: His6, N-terminal, cleaved; ubiquitin, N-terminal, cleaved
# Experiments:
# [1] = target: B8; assay: quantitative densitometry of SDS-PAGE; Coomassie-stained SDS–PAGE of the purified complexes (4 µg per lane), assuming equal binding of the dye; conditions: both partners purified
# [2] = target: B8; assay: SEC + other: glycerol gradient sedimentation; combined Stokes radius/sedimentation analysis: Stokes radius from gel filtration, Svedberg coefficient from 5–30% glycerol gradients in buffer A (1 mg/ml, 35,000 r.p.m., 16 h, 4 °C); M=4,205 (SRs); conditions: both partners purified
# [3] = target: B9; assay: quantitative densitometry of SDS-PAGE; Coomassie-stained SDS–PAGE of the purified complexes (4 µg per lane), assuming equal binding of the dye; conditions: both partners purified
# [4] = target: B9; assay: SEC + other: glycerol gradient sedimentation; combined Stokes radius/sedimentation analysis: Stokes radius from gel filtration, Svedberg coefficient from 5–30% glycerol gradients in buffer A (1 mg/ml, 35,000 r.p.m., 16 h, 4 °C); M=4,205 (SRs); conditions: both partners purified
# [5] = target: B5; assay: as above; conditions: both partners purified
# [6] = target: the molecule itself; assay: as above
Binder,stoichiometry N [6],further results
B1,–,stoichiometry N [1]: 1 CbbO subunit per 6 CbbQ subunits; stoichiometry N [2]: 1 CbbO subunit per CbbQ hexamer
B2,–,stoichiometry N [3]: 1 CbbO subunit per 6 CbbQ subunits; stoichiometry N [4]: 1 CbbO subunit per CbbQ hexamer
B3,–,binding result [5]: binds
B4,6 subunits in the oligomer,–
B5,8 large subunits in the complex,–
B6,6 subunits in the oligomer,–
B7,8 large subunits in the complex,–
B8,6 CbbQ subunits in the complex,–
B9,6 subunits in the oligomer,–
